# Measurements published in the supplement of paper PMC9112550, “Optimization of the antimicrobial peptide Bac7 by deep mutational scanning” (BMC Biology, 2022).
# Test system: Escherichia coli TOP10
# Test: shrunken log2 fold change of peptide-encoding DNA abundance (4.5 h post-induction vs induction); higher = less antimicrobial activity (less host growth inhibition)
# Details: time post-induction: 4.5 h; library: site-saturation at positions 5, 18, 19, 20
# 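Further: peptides expressed intracellularly from a pBAD plasmid library in pooled LB shake-flask culture, induced with 0.3% L-arabinose, DNA abundance read by NGS, three biological replicates, DESeq2 with apeglm shrinkage.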
row,Sequence,shrunken log2 fold change
1,RRIRGRPPRLPRPRPRPGIEPRP,0.118
2,RRIRNRPPRLPRPRPRPSLDPRP,-0.258
3,RRIRGRPPRLPRPRPRPFRHPRP,0.0102
4,RRIRIRPPRLPRPRPRPLAIPRP,-1.11
5,RRIRVRPPRLPRPRPRPLNGPRP,0.103
6,RRIRWRPPRLPRPRPRPAGYPRP,0.278
7,RRIRYRPPRLPRPRPRPFMHPRP,-0.661
8,RRIRGRPPRLPRPRPRPSVNPRP,0.2
9,RRIRKRPPRLPRPRPRPNSLPRP,-0.00111
10,RRIRVRPPRLPRPRPRPYRNPRP,-0.0374
11,RRIRTRPPRLPRPRPRPEYGPRP,-0.0673
12,RRIRHRPPRLPRPRPRPRISPRP,0.0117
13,RRIRGRPPRLPRPRPRPIKSPRP,0.326
14,RRIRKRPPRLPRPRPRPPKNPRP,0.546
15,RRIRVRPPRLPRPRPRPAKHPRP,-0.169
16,RRIRWRPPRLPRPRPRPCHHPRP,-0.723
17,RRIRDRPPRLPRPRPRPFGWPRP,0.903
18,RRIRSRPPRLPRPRPRPLYEPRP,-0.438
19,RRIRIRPPRLPRPRPRPDYCPRP,-0.163
20,RRIRMRPPRLPRPRPRPKPWPRP,1.12

row,Sequence,shrunken log2 fold change
1,RRIRKRPPRLPRPRPRPEYMPRP,0.264
2,RRIRTRPPRLPRPRPRPTQMPRP,0.451
3,RRIRVRPPRLPRPRPRPEGAPRP,0.451
4,RRIRQRPPRLPRPRPRPLKIPRP,-0.141
5,RRIRPRPPRLPRPRPRPNLPPRP,-0.142
6,RRIRARPPRLPRPRPRPFVLPRP,-0.181
7,RRIRRRPPRLPRPRPRPMRRPRP,0.425
8,RRIRDRPPRLPRPRPRPRAPPRP,0.359
9,RRIRQRPPRLPRPRPRPPIWPRP,0.113
10,RRIRRRPPRLPRPRPRPGMVPRP,0.308
11,RRIRDRPPRLPRPRPRPPWAPRP,0.311
12,RRIRHRPPRLPRPRPRPTKKPRP,-0.0507
13,RRIRNRPPRLPRPRPRPHIGPRP,-0.0161
14,RRIRPRPPRLPRPRPRPKPPPRP,0.538
15,RRIRVRPPRLPRPRPRPKRPPRP,0.32
16,RRIRDRPPRLPRPRPRPCDSPRP,-0.0465
17,RRIRCRPPRLPRPRPRPPRSPRP,0.993
18,RRIRNRPPRLPRPRPRPQYNPRP,-0.674
19,RRIRARPPRLPRPRPRPPEDPRP,0.308
20,RRIRDRPPRLPRPRPRPHWHPRP,-0.192

row,Sequence,shrunken log2 fold change
1,RRIRLRPPRLPRPRPRPPMFPRP,-0.242
2,RRIRQRPPRLPRPRPRPYESPRP,-0.261
3,RRIRNRPPRLPRPRPRPKCYPRP,-0.0478
4,RRIRQRPPRLPRPRPRPGMGPRP,0.33
5,RRIRIRPPRLPRPRPRPVTWPRP,-0.372
6,RRIRLRPPRLPRPRPRPKAHPRP,0.125
7,RRIRKRPPRLPRPRPRPTSEPRP,0.79
8,RRIRHRPPRLPRPRPRPIGYPRP,0.0062
9,RRIRVRPPRLPRPRPRPFWRPRP,0.0595
10,RRIRKRPPRLPRPRPRPMRMPRP,1.84
11,RRIRARPPRLPRPRPRPGSMPRP,0.135
12,RRIRWRPPRLPRPRPRPSSDPRP,-0.0856
13,RRIRHRPPRLPRPRPRPKEIPRP,-0.00142
14,RRIRFRPPRLPRPRPRPNRWPRP,0.0144
15,RRIRFRPPRLPRPRPRPWEFPRP,-0.12
16,RRIRCRPPRLPRPRPRPKWVPRP,0.0707
17,RRIRFRPPRLPRPRPRPGYHPRP,-1.45
18,RRIRWRPPRLPRPRPRPPALPRP,0.433
19,RRIRYRPPRLPRPRPRPCEAPRP,-0.123
20,RRIRERPPRLPRPRPRPGTKPRP,-0.0636
